Results as given in publication doi:10.1101/2020.12.31.424863 (bioRxiv, 2020).

T1: Smc6 (subunit of the budding yeast Smc5/6 holo-complex) (budding yeast, UniProt Q12749 1-1114)
T1 sequence: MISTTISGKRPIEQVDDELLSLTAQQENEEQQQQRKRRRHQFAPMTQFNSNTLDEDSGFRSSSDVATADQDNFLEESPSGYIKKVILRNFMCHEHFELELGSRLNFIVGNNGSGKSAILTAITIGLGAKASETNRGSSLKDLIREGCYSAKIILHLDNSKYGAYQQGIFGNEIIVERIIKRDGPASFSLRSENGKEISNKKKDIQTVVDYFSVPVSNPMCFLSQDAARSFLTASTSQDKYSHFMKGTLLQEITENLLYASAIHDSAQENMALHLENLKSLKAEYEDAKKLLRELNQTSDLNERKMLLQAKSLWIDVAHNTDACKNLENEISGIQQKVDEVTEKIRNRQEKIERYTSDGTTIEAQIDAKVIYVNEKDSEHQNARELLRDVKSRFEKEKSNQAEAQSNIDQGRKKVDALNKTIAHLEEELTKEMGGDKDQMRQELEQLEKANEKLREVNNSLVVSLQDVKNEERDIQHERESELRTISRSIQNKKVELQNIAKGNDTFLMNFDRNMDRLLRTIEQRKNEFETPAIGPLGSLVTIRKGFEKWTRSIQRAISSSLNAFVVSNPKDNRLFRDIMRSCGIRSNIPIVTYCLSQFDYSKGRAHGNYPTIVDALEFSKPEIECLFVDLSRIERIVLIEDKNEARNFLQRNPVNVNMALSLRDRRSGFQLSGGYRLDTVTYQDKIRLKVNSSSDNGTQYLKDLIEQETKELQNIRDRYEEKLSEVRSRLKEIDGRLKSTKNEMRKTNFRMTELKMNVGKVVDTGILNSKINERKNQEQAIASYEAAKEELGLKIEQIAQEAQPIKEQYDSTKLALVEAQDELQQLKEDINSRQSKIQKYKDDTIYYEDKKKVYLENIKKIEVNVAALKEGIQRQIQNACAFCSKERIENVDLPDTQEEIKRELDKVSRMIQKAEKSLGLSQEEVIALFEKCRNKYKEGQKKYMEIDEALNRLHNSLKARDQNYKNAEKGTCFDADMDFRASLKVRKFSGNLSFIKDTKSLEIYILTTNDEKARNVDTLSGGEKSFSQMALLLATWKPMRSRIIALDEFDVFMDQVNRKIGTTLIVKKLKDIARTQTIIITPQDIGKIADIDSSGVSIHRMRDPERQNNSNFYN

B1: Smc5 (subunit of the budding yeast Smc5/6 holo-complex) (natural protein)
chain: MTSLIDLGRYVERTHHGEDTEPRSKRVKIAKPDLSSFQPGSIIKIRLQDFVTYTLTEFNLSPSLNMIIGPNGSGKSTFVCAVCLGLAGKPEYIGRSKKVEDFIKNGQDVSKIEITLKNSPNVTDIEYIDARDETIKITRIITRSKRRSDYLINDYQVSESVVKTLVAQLNIQLDNLCQFLSQERVEEFARLKSVKLLVETIRSIDASLLDVLDELRELQGNEQSLQKDLDFKKAKIVHLRQESDKLRKSVESLRDFQNKKGEIELHSQLLPYVKVKDHKEKLNIYKEEYERAKANLRAILKDKKPFANTKKTLENQVEELTEKCSLKTDEFLKAKEKINEIFEKLNTIRDEVIKKKNQNEYYRGRTKKLQATIISTKEDFLRSQEILAQTHLPEKSVFEDIDIKRKEIINKEGEIRDLISEIDAKANAINHEMRSIQRQAESKTKSLTTTDKIGILNQDQDLKEVRDAVLMVREHPEMKDKILEPPIMTVSAINAQFAAYLAQCVDYNTSKALTVVDSDSYKLFANPILDKFKVNLRELSSADTTPPVPAETVRDLGFEGYLSDFITGDKRVMKMLCQTSKIHTIPVSRRELTPAQIKKLITPRPNGKILFKRIIHGNRLVDIKQSAYGSKQVFPTDVSIKQTNFYQGSIMSNEQKIRIENEIINLKNEYNDRKSTLDALSNQKSGYRHELSELASKNDDINREAHQLNEIRKKYTMRKSTIETLREKLDQLKREARKDVSQKIKDIDDQIQQLLLKQRHLLSKMASSMKSLKNCQKELISTQILQFEAQNMDVSMNDVIGFFNEREADLKSQYEDKKKFVKEMRDTPEFQSWMREIRSYDQDTKEKLNKVAEKYEEEGNFNLSFVQDVLDKLESEIAMVNHDESAVTILDQVTAELRELEHTVPQQSKDLETIKAKLKEDHAVLEPKLDDIVSKISARFARLFNNVGSAGAVRLEKPKDYAEWKIEIMVKFRDNAPLKKLDSHTQSGGERAVSTVLYMIALQEFTSAPFRVVDEINQGMDSRNERIVHKAMVENACAENTSQYFLITPKLLTGLHYHEKMRIHCVMAGSWIPNPSEDPKMIHFGETSNYSFD
B2: Nse2 SUMO ligase (subunit of the budding yeast Smc5/6 holo-complex) (natural protein)
chain: MALNDNPIPKSVPLHPKSGKYFHNLHARDLSNIYQQCYKQIDETINQLVDSTSPSTIGIEEQVADITSTYKLLSTYESESNSFDEHIKDLKKNFKQSSDACPQIDLSTWDKYRTGELTAPKLSELYLNMPTPEPATMVNNTDTLKILKVLPYIWNDPTCVIPDLQNPADEDDLQIEGGKIELTCPITCKPYEAPLISRKCNHVFDRDGIQNYLQGYTTRDCPQAACSQVVSMRDFVRDPIMELRCKIAKMKESQEQDKRSSQAIDVL
B3: Nse6 (subunit of the budding yeast Smc5/6 holo-complex) (natural protein)
chain: MGSVNSSPNEEFETVPDSQISGFDSPLIPTSVGSYFRDDDDDEKVHPNFISDPENDSLNSDEEFSSLENSDLNLSGAKAESGDDFDPILKRTIISKRKAPSNNEDEEIVKTPRKLVNYVPLKIFNLGDSFDDTITTTVAKLQDLKKEILDSPRSNKSIVITSNTVAKSELQKSIKFSGSIPEIYLDVVTKETISDKYKDWHFISKNCHYEQLMDLEMKDTAYSFLFGSSRSQGKVPEFVHLKCPSITNLLVLFGVNQEKCNSLKINYEKKENSRYDNLCTIFPVNKMLKFLMYFYSDDDNDDVREFFLKAFICLILDRKVFNAMESDHRLCFKVLELFNEAHFINSYFEIVDKNDFFLHYRLLQIFPHLQSALLRRRFSEKQGRTETIQQNIIKEFNEFFDCKNYKNLLYFILTMYGSKFIPFGPKCQVTEYFKDCILDISNETTNDVEISILKGILNLFSKIR
B4: Nse5 (subunit of the budding yeast Smc5/6 holo-complex) (natural protein)
chain: MDGALINSVLYVSPRNGAHYFVELTEKHLLAFEMLNSMCLLENYDHVLLFLECQFGKSHNLAVIPFDIILVLFTLSTLSEYYKEPILRANDPYNTSRETLSRRALKLLQKYLAILKEFDSEQYNLYDLELLRCQFFLAIDTLTPKKQKWGFDRFRRTKSESGVTYRQNASVDPELDQAKTFKNPYRSYISCLEQRNTILGNRLLNLKLNEPGEFINMILWTLSNSLQESTPLFLSSHEIWMPLLEILIDLFSCRQDYFIQHEVAQNVSKSLFVQRLSESPLAVFFESLNTRNFANRFSEYVFLNCDYKLPSDNYATPVHPVYNGENTIVDTYIPTIKCSPLYKSQKSLALRRKLIGSCFKLLLRVPDGHRLITPRIVADDVIQGISRTLASFNDILQFKKFFMTENLSQESYFIPLLAEGTLSEILKDTQECVVILTLVENLSDGVSFCNEVIGLVKSKCFAFTEQCSQASYEEAVLNIEKCDVCLLVLLRYLLHLIGTEAILDAKEQLEMLHAIEKNDSGRRQWAKALNLGNDPPLLYPIVSQMFGVHDKSVIIE

Experiments:
[1] = target: T1, Smc6 (subunit of the budding yeast …); assay: negative stain EM
[2] = target: B1; assay: cross-linking
[3] = target: B3; assay: cross-linking
[4] = target: T1, Smc6 (subunit of the budding yeast …); assay: cross-linking
[5] = target: B4; assay: cross-linking

Binder | binding result [1] | binding result [2] | binding result [3] | binding result [4] | binding result [5]
B1 | binds |  |  |  | 
B2 |  | binds | binds | binds | 
B3 |  | binds |  | binds | binds
B4 |  | binds |  | binds | 
